How the values were obtained:
[1] = biological target: human C1, P02745;P02746;P02747; test: HS-AFM; conditions: CL domain anchored onto a Ni2+-coated mica surface using the C-terminal hexahistidine tag; count in 10 different scanning areas; parent: est. 150; read off a plot
[2] = biological target: human C1q, P02745;P02746;P02747; test: HS-AFM; conditions: CL domain anchored onto a Ni2+-coated mica surface using the C-terminal hexahistidine tag; count in 10 different scanning areas; parent: est. 88; read off a plot

Substance	response [1] [molecules]	response [2] [molecules]
human Cκ domain (from UniProt P01834) E194A	55	19
human Cκ domain (from UniProt P01834) K206A	160	83
